“Also recorded” adds a separate entry of the source.
Test system: 33 normal human tissues
Experiment: Immunohistochemistry on a normal tissue microarray (specificity)
Conditions: 33 normal tissues, 2-3 human donors per tissue
Procedure: The specificity of the chAB2 antibody for Sp17 was determined with immunohistochemistry on a normal tissue microarray, which consisted of 33 normal tissues obtained from 2-3 human donors per tissue. The normal tissues included brain, eye, adrenal gland, hypophyseal, thyroid, parathyroid, tonsil, thymus, spleen, heart, lung, larynx, esophagus, stomach, small intestine, colon, liver, pancreas, salivary gland, kidney, bone, skeletal, skin, peripheral nerve, mesothelial, breast, ovary, endometrium, cervix, testis, and prostate.

B1: chAB2: mouse-human chimeric anti-Sp17 monoclonal antibody; human VH/VL (SEQ ID NO: 3, 4) in mouse IgG2a heavy chain and mouse kappa light chain (antibody, V domains shown)
VH: QVQLQQSGAEVKKPGSSVKVSCKASGGTFSSYAISWVRQAPGQGLEWMGRIIPILGIANYAQKFQGRVTITADKSTSTAYMELSSLRSEDTAVYYCARPSEEVVAAYGAFDIWGQGTTVTVSS
VL: EIVLTQSPLSLPVRPGEPASISCRASQSLLRSDGFNYLDWYLQKPGQSPQLLVYLGSNRASGVPDRFSGSGSGTDFTLKISRVEAEDVGVYYCMQAVQTPYIFGQGTKLEIK
modifications: mouse IgG2a and kappa constant regions
- binding to normal human tissues / cross-reactivity: bound to testis and did not bind to normal tissues; also recorded: lack detectable cross-reactivity
